Data on four molecules can be found in patent publication US20190389914A1 (University of California, published 2019).

Assay [1] concerns the target GAL4 activation domain fusion to HAB1^V393R (Arabidopsis thaliana (Mouse-ear cress)) (UniProt Q9CAJ0). Briefly: Y2H, ABA, beta-gal staining (FIG. 1).
For assay [2], the target named is GAL4 activation domain fusion to HAB1^!-3 (pACT-HAB1^!-3; D204A in HAB1^!-2) (Arabidopsis thaliana (Mouse-ear cress)) (UniProt Q9CAJ0). Description: Y2H, mandipropamid (FIG. 5).
Assay [3] addresses GAL4 activation domain fusion to HAB1 (pACT-HAB1), wild type (Arabidopsis thaliana (Mouse-ear cress)) (UniProt Q9CAJ0). Description: Y2H, mandipropamid (FIG. 6).
Assay [4] concerns the target T1, GAL4 activation domain fusion to HAB1^V393R (Arabidopsis thaliana (Mouse-ear cress), UniProt Q9CAJ0 4-511).
T1 construct: Mutant of the pACT-HAB1 template, which lacks the three N-terminal amino acids of HAB1; Denoted HAB1^!
T1 sequence: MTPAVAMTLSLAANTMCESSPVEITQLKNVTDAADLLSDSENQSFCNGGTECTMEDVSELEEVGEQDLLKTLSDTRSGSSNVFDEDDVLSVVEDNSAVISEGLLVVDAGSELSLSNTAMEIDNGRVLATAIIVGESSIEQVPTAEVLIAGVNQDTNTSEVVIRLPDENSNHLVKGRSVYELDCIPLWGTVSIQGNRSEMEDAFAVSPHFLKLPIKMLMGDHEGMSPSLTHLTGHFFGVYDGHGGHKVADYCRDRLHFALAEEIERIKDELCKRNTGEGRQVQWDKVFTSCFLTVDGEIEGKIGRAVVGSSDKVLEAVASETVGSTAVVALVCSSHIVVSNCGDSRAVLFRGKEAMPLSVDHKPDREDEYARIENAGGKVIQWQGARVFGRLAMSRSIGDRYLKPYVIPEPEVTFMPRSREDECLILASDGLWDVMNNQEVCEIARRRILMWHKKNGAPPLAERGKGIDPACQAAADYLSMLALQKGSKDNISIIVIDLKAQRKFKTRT
Briefly: Y2H, mandipropamid (FIG. 3).

The target of assay [5] is T2, GAL4 activation domain fusion to HAB1^!-2 (pACT-HAB1^!-2; HAB1^V393R/R505A) (Arabidopsis thaliana (Mouse-ear cress), UniProt Q9CAJ0 4-511).
T2 construct: R505A introduced into the pACT clone carrying V393R; the pACT-HAB1 template lacks the three N-terminal amino acids of HAB1; also called HAB^!-2
T2 sequence: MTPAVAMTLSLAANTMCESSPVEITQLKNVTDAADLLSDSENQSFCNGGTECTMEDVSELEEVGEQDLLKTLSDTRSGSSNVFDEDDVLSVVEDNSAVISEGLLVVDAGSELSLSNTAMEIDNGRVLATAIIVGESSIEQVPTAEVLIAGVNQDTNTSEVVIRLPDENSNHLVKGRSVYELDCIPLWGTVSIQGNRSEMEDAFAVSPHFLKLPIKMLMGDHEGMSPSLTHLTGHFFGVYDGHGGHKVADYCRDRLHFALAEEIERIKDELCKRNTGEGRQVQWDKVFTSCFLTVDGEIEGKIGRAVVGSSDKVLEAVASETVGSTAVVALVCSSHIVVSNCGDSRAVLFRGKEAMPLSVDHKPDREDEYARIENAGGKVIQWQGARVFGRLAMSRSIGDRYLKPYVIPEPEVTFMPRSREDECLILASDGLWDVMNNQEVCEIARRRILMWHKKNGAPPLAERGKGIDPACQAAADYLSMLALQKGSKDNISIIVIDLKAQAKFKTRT
Description: Y2H, mandipropamid (FIG. 3).

Assay [6] concerns the target T3, 6x-His-PYR1 (recombinant wild type, E. coli) (Arabidopsis, UniProt O49686 1-191).
T3 construct: Previously constructed (Park et al., 2009); also called 6×-His-PYR1; wild type PYR1; not shown: 6x-His tag
T3 sequence: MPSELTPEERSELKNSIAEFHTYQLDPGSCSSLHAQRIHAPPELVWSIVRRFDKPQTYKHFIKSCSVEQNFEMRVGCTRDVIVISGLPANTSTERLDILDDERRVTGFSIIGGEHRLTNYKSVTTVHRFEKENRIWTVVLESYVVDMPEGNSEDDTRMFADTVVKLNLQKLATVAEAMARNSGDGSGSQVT
Briefly: pull-down on His-tag resin, SDS-PAGE (FIG. 8).

As for “GAL4 DNA binding domain fusion to PYR1^T162D (from UniProt P04386 1-147) (receptor)”, the fold less sensitive to ABA than wild type pBD-PYR1/pACT-HAB1 control cells in assay [1] was determined as 4 fold. In assay [2], “GAL4 DNA binding domain fusion to PYR1*^-MANDI (PYR1^Y58H;K59R;V81I;F108A;S122G;M158I;F159V;A160V;T162D) (from UniProt P04386 1-147) (receptor)” returned a fold less sensitive to mandipropamid relative to HAB1^!-2 of 10 fold. This molecule returned a fold less sensitivity to mandipropamid than the orthogonal interaction in assay [3] of 10 fold.

B1: GAL4 DNA binding domain fusion to PYR1^!-MANDI (PYR1^Y58H;K59R;V81I;F108A;S122G;F159L;T162D) (receptor, not shown: small tags and cut ends)
chain: MPSELTPEERSELKNSIAEFHTYQLDPGSCSSLHAQRIHAPPELVWSIVRRFDKPQTHRHFIKSCSVEQNFEMRVGCTRDIIVISGLPANTSTERLDILDDERRVTGASIIGGEHRLTNYKGVTTVHRFEKENRIWTVVLESYVVDMPEGNSEDDTRMLADDVVKLNLQKLATVAEAMARNSGDGSGSQVT
notes: Septuple mutant; also called pBD-PYR1^!-MANDI
Take B1: the “fold less sensitive to mandipropamid than the PYR1^MANDI/HAB1 interaction” value in assay [4] and in assay [5] was around 100 fold throughout.

B2: GST-HAB1* (recombinant, E. coli) (enzyme)
chain: MTPAVAMTLSLAANTMCESSPVEITQLKNVTDAADLLSDSENQSFCNGGTECTMEDVSELEEVGEQDLLKTLSDTRSGSSNVFDEDDVLSVVEDNSAVISEGLLVVDAGSELSLSNTAMEIDNGRVLATAIIVGESSIEQVPTAEVLIAGVNQDTNTSEVVIRLPDENSNHLVKGRSVYELDCIPLWGTVSIQGNASEMEAAFAVSPHFLKLPIKMLMGDHEGMSPSLTHLTGHFFGVYDGHGGHKVADYCRDRLHFALAEEIERIKDELCKRNTGEGRQVQWDKVFTSCFLTVDGEIEGKIGRAVVGSSDKVLEAVADETVGSTAVVALVCSSHIVVSNCGDSRAVLFRGKEAMPLSVDHKPDREDEYARIENAGGKVIQWQGARVFGRLAMSRSIGDRYLKPYVIPEPEVTFMPRSREDECLILASDGLWDVMNNQEVCEIARRRILMWHKKNGAPPLAERGKGIDPACQAAADYLSMLALQKGSKDNISIIVIDLKAQAKFKTRT
notes: Cloned into pGEX-4T-1; not shown: glutathione S-transferase (GST) of pGEX-4T-1
As for B2, the binding result in assay [6] was “no binding”.
